In patent US20200024335A1 (BERG, published 2020):

What was measured:
[1] = biological target: T1, HEK293-expressed full length FLNB (human, UniProt O75369 2-2601); assay: ELISA, coated protein, negative control
T1 construct: prepared by GenScript; also called full length human FLN-B protein

[2] = biological target: E. coli-expressed partial FLNA (aa1443-2131) (Homo sapiens (Human)) (UniProt P21333); assay: ELISA, coated protein, negative control
[3] = biological target: E. coli-expressed partial FLNC (aa 1438-2128) (Homo sapiens (Human)) (UniProt Q14315); assay: ELISA, coated protein, negative control
[4] = biological target: E. coli-expressed partial FLNB (aa1416-2089), Filamin B immunogen (human) (UniProt O75369); assay: ELISA, coated protein, negative control
[5] = biological target: HEK293-expressed full length FLNA (Homo sapiens (Human)) (UniProt P21333); assay: ELISA, coated protein, negative control
[6] = biological target: T1, HEK293-expressed full length FLNB; assay: ELISA, coated protein, hybridoma supernatant
Text: (§1) Filamin A (FLNA) and Filamin C (FLNC) are the other two members in the Filamin family; they share 69% and 61% identity to FLNB, respectively. The clones were screened for negative with E. coli-expressed partial FLNA (aa1443-2131) and E. coli-expressed FLNC (aa 1438-2128) which cover the same region as FLN-B (aa1416-2089), and HEK293-expressed full length FLNA. 10% human serum was further tested for any unexpected cross-reactivity. The Partial FLNA (aa 1443-2131) protein sequence is shown in SEQ ID NO: 32. Partial FLNC (aa 1438-2128) protein sequence is shown in SEQ ID NO: 33. Full length FLNA protein sequence is shown in SEQ ID NO: 34.
(§2) Next, the proteins were coated and tested for supernatants from clones 3F10 and 5H7 by ELISA. […] FLNB proteins were tested for specificity, while homologous proteins FLNA and FLNC from the same family were tested for any cross-reactivity. 10% pooled normal human serum was also included for any unexpected non-specific binding.

[7] = biological target: T2, E. coli-expressed partial FLNC (aa 1438-2128) (Homo sapiens (Human), UniProt Q14315 1438-2128); assay: ELISA, coated protein, hybridoma supernatant
T2 construct: Covers the same region as FLNB aa1416-2089; also called Partial Filamin C (aa 1438-2128)
T2 sequence: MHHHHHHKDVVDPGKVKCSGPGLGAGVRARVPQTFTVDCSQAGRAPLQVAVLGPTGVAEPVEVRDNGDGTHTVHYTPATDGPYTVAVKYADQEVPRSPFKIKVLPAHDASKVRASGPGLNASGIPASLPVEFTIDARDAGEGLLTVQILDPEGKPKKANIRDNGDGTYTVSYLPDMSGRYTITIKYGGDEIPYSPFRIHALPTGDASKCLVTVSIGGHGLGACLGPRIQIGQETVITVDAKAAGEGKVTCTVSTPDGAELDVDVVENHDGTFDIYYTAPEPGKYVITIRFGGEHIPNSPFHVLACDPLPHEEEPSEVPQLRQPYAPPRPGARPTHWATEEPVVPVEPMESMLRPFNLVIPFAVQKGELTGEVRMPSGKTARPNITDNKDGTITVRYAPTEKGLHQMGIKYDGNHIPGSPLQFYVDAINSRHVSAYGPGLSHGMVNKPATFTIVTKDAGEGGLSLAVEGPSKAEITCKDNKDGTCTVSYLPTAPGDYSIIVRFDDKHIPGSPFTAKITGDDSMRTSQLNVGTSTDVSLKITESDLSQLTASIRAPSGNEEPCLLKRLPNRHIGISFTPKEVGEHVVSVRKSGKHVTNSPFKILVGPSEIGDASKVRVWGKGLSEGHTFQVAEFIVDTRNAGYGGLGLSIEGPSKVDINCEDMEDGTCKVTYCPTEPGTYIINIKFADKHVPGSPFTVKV
Text: as §1, §2

[8] = biological target: T3, E. coli-expressed partial FLNB (aa1416-2089), Filamin B immunogen (human, UniProt O75369 1416-2089); assay: ELISA, coated protein, hybridoma supernatant
T3 construct: covers filamin repeats 13-19; also called partial FLNB protein
T3 sequence: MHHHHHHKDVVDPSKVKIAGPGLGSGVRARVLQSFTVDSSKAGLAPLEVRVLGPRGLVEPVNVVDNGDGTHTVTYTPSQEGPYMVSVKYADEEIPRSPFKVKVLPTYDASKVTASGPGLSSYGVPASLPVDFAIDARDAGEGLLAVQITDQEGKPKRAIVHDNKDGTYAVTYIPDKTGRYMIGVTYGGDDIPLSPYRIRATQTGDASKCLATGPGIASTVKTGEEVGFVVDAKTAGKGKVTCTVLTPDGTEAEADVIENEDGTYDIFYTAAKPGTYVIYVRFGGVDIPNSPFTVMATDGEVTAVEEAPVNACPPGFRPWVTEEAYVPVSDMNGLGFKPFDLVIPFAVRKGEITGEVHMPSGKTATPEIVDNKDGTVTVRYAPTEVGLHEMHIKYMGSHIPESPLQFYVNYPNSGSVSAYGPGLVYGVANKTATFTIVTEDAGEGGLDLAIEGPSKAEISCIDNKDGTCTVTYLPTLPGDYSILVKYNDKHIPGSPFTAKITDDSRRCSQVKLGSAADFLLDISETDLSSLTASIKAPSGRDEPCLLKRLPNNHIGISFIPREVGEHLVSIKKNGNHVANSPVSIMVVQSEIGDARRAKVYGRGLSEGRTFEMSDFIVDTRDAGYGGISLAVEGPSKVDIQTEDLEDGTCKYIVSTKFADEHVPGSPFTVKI
Text: as §1, §2

[9] = biological target: T4, E. coli-expressed partial FLNA (aa1443-2131) (Homo sapiens (Human), UniProt P21333 1443-2131); assay: ELISA, coated protein, hybridoma supernatant
T4 construct: Covers the same region as FLNB aa1416-2089; also called Partial Filamin A (aa 1443-2131)
T4 sequence: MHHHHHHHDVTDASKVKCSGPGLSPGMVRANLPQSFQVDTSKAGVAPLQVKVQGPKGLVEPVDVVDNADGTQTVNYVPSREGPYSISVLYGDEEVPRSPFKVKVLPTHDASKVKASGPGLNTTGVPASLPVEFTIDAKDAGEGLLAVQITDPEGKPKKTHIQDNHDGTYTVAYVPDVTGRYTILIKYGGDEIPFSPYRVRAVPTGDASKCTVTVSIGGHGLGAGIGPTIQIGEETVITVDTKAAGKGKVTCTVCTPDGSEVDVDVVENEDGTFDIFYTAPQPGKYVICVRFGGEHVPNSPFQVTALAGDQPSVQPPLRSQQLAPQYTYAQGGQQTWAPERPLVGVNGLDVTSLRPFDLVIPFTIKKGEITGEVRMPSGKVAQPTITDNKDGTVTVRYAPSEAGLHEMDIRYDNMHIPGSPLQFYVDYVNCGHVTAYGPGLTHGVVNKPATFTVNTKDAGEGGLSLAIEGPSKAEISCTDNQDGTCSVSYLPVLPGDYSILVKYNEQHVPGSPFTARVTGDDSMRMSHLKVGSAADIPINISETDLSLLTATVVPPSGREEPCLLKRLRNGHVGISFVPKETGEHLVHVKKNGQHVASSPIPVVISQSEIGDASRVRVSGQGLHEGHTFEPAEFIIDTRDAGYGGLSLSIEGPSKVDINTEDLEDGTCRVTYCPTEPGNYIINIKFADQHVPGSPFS
Text: as §1, §2

[10] = biological target: HEK293-expressed full length FLNA (Homo sapiens (Human)) (UniProt P21333); assay: ELISA, coated protein, hybridoma supernatant
[11] = biological target: 10% pooled normal human serum; assay: ELISA, coated 10% serum, hybridoma supernatant
[12] = biological target: T1, HEK293-expressed full length FLNB; assay: BLI (Octet), antibody on anti-mIgG Fc capture sensor, FLNB 25 nM
[13] = biological target: T5, HEK293-expressed full length FLNA (Homo sapiens (Human), UniProt P21333 2-2647); assay: ELISA, coated protein, hybridoma supernatant
T5 construct: also called Full length Filamin A
Text: as §1, §2

T1 sequence (O75369 other isoform, or with tags, fused parts or gaps): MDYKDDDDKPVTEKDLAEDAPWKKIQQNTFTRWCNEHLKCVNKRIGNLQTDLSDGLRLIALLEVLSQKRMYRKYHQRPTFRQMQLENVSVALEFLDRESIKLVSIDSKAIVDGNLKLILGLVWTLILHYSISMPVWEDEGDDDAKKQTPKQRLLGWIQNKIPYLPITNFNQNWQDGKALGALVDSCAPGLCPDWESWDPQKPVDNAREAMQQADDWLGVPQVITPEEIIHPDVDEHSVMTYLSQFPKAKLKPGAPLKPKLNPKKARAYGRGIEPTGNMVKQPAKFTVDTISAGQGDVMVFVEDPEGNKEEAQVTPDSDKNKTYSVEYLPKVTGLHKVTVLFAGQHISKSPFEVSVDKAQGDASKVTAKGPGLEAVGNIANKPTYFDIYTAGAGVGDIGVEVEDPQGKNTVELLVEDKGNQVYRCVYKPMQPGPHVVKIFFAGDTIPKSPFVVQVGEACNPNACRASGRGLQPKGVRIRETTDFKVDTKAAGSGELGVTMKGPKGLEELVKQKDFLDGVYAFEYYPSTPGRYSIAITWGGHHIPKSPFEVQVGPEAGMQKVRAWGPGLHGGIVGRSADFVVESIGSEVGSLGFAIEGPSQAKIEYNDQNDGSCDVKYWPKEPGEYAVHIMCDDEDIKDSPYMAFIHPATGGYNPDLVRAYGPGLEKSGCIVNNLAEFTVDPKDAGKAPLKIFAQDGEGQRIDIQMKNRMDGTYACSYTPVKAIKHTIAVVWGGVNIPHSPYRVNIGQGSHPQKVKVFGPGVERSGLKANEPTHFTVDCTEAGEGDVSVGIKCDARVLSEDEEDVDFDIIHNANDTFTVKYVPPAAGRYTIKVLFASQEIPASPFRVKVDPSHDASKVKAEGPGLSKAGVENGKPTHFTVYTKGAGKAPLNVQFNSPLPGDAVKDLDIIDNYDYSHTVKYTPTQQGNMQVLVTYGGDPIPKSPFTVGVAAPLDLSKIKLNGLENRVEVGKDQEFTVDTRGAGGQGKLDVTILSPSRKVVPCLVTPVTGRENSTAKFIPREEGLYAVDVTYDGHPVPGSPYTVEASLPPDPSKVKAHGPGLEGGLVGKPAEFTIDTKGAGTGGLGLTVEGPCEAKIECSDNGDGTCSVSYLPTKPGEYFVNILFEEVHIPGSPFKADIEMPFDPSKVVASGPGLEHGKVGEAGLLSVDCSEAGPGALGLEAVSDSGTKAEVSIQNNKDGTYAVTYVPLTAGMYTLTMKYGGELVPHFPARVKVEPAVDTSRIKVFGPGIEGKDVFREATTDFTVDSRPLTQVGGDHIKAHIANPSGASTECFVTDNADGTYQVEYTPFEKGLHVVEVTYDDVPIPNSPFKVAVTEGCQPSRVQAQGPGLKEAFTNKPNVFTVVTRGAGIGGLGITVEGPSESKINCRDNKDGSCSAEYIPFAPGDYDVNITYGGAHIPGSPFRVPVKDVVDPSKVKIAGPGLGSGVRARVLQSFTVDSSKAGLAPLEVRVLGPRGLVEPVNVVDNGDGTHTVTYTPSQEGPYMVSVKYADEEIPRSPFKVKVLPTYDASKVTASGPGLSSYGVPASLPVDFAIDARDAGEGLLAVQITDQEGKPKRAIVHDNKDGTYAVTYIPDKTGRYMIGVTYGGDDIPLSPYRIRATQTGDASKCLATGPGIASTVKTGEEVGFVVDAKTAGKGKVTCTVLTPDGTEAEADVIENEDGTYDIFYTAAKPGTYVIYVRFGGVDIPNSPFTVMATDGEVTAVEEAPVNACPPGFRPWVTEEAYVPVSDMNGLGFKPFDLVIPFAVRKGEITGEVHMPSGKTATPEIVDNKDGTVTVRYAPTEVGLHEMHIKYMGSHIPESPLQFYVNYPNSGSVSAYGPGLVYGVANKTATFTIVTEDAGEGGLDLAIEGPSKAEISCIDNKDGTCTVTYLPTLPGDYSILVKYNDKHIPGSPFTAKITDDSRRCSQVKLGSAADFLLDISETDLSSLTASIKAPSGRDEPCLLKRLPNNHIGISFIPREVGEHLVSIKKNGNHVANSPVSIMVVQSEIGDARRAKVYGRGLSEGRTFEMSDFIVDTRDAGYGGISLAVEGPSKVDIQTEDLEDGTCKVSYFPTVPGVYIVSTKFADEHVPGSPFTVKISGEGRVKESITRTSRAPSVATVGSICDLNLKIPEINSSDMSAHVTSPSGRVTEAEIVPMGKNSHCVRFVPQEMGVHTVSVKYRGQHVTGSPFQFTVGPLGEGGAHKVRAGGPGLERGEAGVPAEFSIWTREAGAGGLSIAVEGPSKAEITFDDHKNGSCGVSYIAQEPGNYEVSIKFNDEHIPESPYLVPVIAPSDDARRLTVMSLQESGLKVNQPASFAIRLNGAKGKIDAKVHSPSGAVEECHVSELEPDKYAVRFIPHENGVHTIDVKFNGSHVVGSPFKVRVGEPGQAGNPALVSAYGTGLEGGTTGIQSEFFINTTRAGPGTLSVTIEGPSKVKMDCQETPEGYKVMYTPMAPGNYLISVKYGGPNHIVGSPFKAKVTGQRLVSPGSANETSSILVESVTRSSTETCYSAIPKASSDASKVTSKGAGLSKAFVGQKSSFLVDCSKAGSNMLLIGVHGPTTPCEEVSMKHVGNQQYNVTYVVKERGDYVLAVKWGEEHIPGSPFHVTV

An ELISA test result [1] of 0.06, an ELISA test result [2] of 0.05 and an ELISA test result [3] of 0.05 were found for “Neg ctl (negative control of the specificity ELISA)” in this work. For the same molecule, the ELISA test result [4] was 0.04 and the ELISA test result [5] was 0.073.

B1: 5H7 murine monoclonal anti-FLNB antibody (antibody, IgG2b, V domains shown)
VH: DVQLQESGPGLVKPSQSLSLTCSVTGYSITSGYYWNWIRQFPGNKLEWMGYISYDGSNNYNPSLKNRISITRDTSKNQFFLRLNSVTTEDTATYYCARETWASFDYWGQGTTLTVSS
VL: DIVMTQSQKFMSTTVGDRVGITCKASQNVGIAVAWYQQKPGQSPRLLIYSASYRYTGVPDRFSGSGSGTDFTLTINNMQSEDLADYFCQQYSSYPLTFGSGTKLEIK
notes: also called clone 5H7; biotin-linked monoclonal antibody specific for FLNB (5H7)
In the case of B1, the ELISA test result [6] is reported as 3.49, the ELISA test result [7] is reported as 0.05 and the binding result [7] is reported as “no binding”. For the same molecule, the ELISA test result [8] was 3.48, the ELISA test result [9] was 0.05 and the binding result [9] was “no binding”. For the same molecule, the ELISA test result [10] was 0.191, the ELISA test result [11] was 0.123 and the Kd [12] was < 1 pM. For the same molecule, the koff [12] was < 1e-07 s⁻¹ and the kon [12] was 250000 M⁻¹ s⁻¹.

B2: 3F10 murine monoclonal anti-FLNB antibody (antibody, V domains shown)
VH: QVQLQQPGAELVKPGASVKLSCKASGYTFTSYWMHWVKQRPGQGLEWIGMIHPNSGSTNYNEKFKSKATLTVDKSSSTAYMQLSSLTSEDSAVYYCAIYGSGPWFAYWGQGTLVTVSA
VL: DIQMTQSPASLSASVGETVTITCRASENIYSSLAWYQQKQGKSPQLLVYYAKTLAEGVPSRFSGSGSGTQFSLKINRLQPEDFGSYYCQHHYGSPLTFGAGTKLELK
notes: Tested as hybridoma supernatant or purified antibody; also called clone 3F10; anti-FLNB antibody (3F10)
B2 was tested, and the ELISA test result [6] was 2.36, the ELISA test result [7] was 0.06 and the binding result [7] was “no binding”. For the same molecule, the ELISA test result [8] was 3.87, the ELISA test result [13] was 0.076 and the binding result [13] was “no binding”. The ELISA test result [9] was 0.05, the binding result [9] was “no binding” and the ELISA test result [11] was 0.048. The Kd [12] was < 1 pM, the koff [12] was < 1e-07 s⁻¹ and the kon [12] was 270000 M⁻¹ s⁻¹.
